Columns and labels:
Assay in all cases: SPR (Biacore)
BC 244-C6 x CD3 = target: BC 244-C6 x CD3
BC 247-C3 x CD3 = target: BC 247-C3 x CD3
BCMA 101 x CD3 = target: BCMA 101 x CD3

B1: Human BCMA (receptor)
chain (part 1 of 2): MLQMAGQCSQNEYFDSLLHACIPCQLRCSSNTPPLTCQRYCNASVTNSVKGTNASGGGGSEAHKSEIAHRYNDLGEQHFKGLVLIAFSQYLQKCSYDEHAKLVQEVTDFAKTCVADESAANCDKSLHTLFGDKLCAIPNLRENYGELADCCTKQEPERNECFLQHKDDNPSLPPFERPEAEAMCTSFKENPTTFMGHYLHEVARRHPYFYAPELLYYAEQYNEILTQCCAEADKESCLTPKLDGVKEKALVSSVRQRMKCSSMQKFGERAFKAWAVARLSQTFPNADFAEITKLATDLTKVNKECCHGDLLECADDRAELAKYMCENQATISSKLQTCCDKPLLKKAHCLSEVEHDTMPADLPAIAADFVEDQEVCKNYAEAKDVFLGTFLYEYSRRHPDYSVSLLLRLAKKYEATLEKCCAEANPPACYGTVLAEFQPLVEEPKNLVKTNCDLYEKLGEYGFQNAILVRYTQKAPQVSTPTLVEAARNLGRVGTKCCTLPEDQRLPCVEDYLSAILNRVCLLHEKTPVSEHVTKCCSGSLVERRPCFSALTVDETYVPKEFKAETFTFHSDICTLPEKEKQIKKQTALAELVKHKPKATAEQLKTVMDDFAQFLDTCCKAADKDTCFSTEGPNLVTRCKDALA
chain (part 2 of 2): SGHHGGHHGGHH
Question: What does the source list for B1?
Answer: Kd (BC 244-C6 x CD3): 0.3 nM; Kd (BC 247-C3 x CD3): 0.4 nM; Kd (BCMA 101 x CD3): 0.5 nM
